Test results taken from patent US20110172126A1, “LIBRARIES OF PEPTIDE CONJUGATES AND METHODS FOR MAKING THEM” (XENOME LTD, priority 2008, published 2011).
*1 amine or outer side, *2 acyl side, *3 side chain or, on linkers, in order; H or OH if unused. Bridges are numbered along the chain shown (N, C = ends). Where no end group is shown, it is not given here. [ ]: non-standard residue; d: D form. The star is where a group is joined. 12302 = turn inducer derived from (2S,4R)-Fmoc-4-amino-1-BOC-pyrrolidine-2-carboxylic acid, O=C([C@@H]1C[C@@H](N[*:1])CN1[*:3])[*:2]; Isovaleryl = CC(C)CC(=O)*

Experiments:
Format in all cases: binding
[1] = molecular target: T1, human delta2 Opioid Receptor (hδ2OR) (Homo sapiens, UniProt P41143); experiment: hδ2OR assay: competitive inhibition of 3H-Naltrindole from membrane expressing hδ2OR; conditions: single concentration 10 μM
T1 construct: purchased Perkin Elmer Life Sciences RPNQ001
T1 sequence (P41143 whole entry): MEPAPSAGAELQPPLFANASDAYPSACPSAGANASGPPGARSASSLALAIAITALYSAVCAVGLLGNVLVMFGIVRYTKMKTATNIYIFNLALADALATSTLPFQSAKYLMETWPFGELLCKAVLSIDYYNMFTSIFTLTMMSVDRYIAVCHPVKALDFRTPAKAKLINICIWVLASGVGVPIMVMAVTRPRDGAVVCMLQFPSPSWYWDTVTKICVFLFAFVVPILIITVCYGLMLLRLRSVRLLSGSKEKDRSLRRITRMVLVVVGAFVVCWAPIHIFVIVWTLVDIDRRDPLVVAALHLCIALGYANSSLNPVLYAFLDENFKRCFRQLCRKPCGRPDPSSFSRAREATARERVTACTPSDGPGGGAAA
Description: A homogeneous assay was used to determine the ability of compounds to act as inhibitors of the hδ2OR as measured by competitive inhibition of ^3H-Naltrindole from membrane expressing hδ2OR.
Total assay volume was 80 μL (20 μL competing ligand, 20 μL SPA beads, 20 μL, membrane and 20 μL tritiated ligand). Assay buffer used was Tris HCl (50 mM, pH 7.4), MgCl2 (5 mM) and BSA (0.1%). Peptides were initially screened at a single concentration of 10 μM. Confirmation of any hits was performed using full dose response of the peptide using various concentrations (10^−4 to 10^−11M) or control ligand (Naltriben). The competing ligands were added to the assay plate followed by SPA beads at a concentration of 100 μg/well (GE Healthcare, Amersham Cat. #FBB001) and […] (Perkin Elmer Life Sciences Cat #RPNQ001). This was followed by 1.6 nM […] [for a final concentration 0.4 nM] (Perkin Elmer Cat #NET1065), after which the plate was sealed and incubated at RT for 1 hr with shaking. The plate was then counted on a Wallac Microbeta instrument.

[2] = molecular target: T2, rat sodium channel 1.2 (rNav1.2) (Rattus norvegicus, UniProt P04775); experiment: rat Nav1.2 channel assay: competitive inhibition of 125H-TIIIA from rat brain homogenate; conditions: single concentration 10 μM
T2 construct: from tissue; host or cells: rat brain homogenate / rat brain membrane
T2 sequence (P04775 whole entry): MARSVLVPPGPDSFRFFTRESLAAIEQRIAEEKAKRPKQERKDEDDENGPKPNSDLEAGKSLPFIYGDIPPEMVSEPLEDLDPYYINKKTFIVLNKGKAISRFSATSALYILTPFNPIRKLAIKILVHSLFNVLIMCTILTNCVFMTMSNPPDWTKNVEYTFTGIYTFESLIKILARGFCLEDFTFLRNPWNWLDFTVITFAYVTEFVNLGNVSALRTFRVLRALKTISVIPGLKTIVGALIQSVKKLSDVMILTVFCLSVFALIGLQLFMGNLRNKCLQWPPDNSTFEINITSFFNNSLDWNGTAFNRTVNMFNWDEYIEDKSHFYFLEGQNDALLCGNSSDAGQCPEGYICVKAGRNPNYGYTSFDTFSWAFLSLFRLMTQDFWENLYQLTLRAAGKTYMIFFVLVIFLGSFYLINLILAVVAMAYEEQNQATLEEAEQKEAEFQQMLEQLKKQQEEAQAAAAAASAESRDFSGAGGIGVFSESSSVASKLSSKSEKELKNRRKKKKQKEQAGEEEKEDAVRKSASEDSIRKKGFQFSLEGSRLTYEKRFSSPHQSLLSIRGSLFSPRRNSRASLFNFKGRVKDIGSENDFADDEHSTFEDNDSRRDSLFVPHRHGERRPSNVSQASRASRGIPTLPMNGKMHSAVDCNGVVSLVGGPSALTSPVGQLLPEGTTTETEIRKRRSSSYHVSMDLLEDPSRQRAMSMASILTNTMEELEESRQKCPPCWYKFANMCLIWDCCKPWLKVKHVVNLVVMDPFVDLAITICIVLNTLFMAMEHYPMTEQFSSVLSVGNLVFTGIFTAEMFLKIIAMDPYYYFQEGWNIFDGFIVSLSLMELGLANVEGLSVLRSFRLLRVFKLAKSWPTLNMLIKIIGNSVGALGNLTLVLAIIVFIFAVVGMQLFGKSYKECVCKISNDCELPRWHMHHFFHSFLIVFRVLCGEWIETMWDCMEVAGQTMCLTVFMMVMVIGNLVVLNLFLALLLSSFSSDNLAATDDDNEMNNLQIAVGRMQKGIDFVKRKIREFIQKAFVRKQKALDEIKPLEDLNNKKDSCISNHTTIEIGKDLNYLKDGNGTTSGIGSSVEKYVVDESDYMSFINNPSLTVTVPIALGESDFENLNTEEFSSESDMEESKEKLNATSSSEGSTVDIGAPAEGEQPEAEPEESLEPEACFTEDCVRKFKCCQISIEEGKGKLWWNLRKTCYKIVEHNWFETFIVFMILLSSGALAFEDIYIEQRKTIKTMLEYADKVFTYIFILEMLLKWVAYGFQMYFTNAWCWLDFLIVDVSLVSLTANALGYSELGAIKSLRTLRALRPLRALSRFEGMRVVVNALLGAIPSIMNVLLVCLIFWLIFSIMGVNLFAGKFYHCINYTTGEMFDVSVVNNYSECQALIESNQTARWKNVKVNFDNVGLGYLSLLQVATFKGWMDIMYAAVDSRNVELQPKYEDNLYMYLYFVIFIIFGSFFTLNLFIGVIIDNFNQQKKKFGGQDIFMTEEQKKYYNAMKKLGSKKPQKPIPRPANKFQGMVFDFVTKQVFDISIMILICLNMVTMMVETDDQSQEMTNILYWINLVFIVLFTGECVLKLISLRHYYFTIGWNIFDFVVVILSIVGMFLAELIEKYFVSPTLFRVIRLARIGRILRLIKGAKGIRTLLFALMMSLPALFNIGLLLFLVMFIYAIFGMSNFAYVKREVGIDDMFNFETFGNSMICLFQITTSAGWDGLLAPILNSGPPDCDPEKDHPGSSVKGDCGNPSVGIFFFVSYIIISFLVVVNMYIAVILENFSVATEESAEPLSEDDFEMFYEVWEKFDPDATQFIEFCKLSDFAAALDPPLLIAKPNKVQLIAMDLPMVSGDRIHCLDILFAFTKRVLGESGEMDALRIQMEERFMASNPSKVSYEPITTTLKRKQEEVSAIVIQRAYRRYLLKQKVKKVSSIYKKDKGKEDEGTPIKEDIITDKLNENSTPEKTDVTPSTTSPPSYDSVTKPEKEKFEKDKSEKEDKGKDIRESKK
Description: A homogeneous assay was used to determine the ability of compounds to act as inhibitors of the rat sodium channel 1.2 (rNav1.2) as measured by competitive inhibition of ^125H-TIIIA from rat brain homogenate.
Total assay volume was 80 μL (20 μL competing ligand, 20 μL, SPA beads, 20 μL rat brain homogenate and 20 μL iodinated ligand). Assay buffer used was HEPES (20 mM pH7.2), MgCl2 (75 mM), EDTA (0.2 mM), EGTA (0.2 mM), BSA (0.1%) and 2% diluted protease inhibitors (Roche cat #1826145). Peptides were initially screened at a single concentration of 10 μM. […] The competing ligands were added to the assay plate followed by Flashblue GPCR scintillating beads at a concentration of 100 μg/well (Perkin Elmer cat #FBB001), rat brain membrane and 30 pM ^125H-TIIIA. After the addition of all reagents the plate was sealed and incubated at RT for 1 h with shaking. The plate was then counted on a Wallac Microbeta instrument.

[3] = molecular target: T3, human norepinephrine transporter (hNET) (Homo sapiens, UniProt P23975); conditions: single concentration 10 μM, 3H-nisoxetine displacement
T3 construct: purchased Perkin Elmer Life Sciences RBHNETM400UA
T3 sequence (P23975 whole entry): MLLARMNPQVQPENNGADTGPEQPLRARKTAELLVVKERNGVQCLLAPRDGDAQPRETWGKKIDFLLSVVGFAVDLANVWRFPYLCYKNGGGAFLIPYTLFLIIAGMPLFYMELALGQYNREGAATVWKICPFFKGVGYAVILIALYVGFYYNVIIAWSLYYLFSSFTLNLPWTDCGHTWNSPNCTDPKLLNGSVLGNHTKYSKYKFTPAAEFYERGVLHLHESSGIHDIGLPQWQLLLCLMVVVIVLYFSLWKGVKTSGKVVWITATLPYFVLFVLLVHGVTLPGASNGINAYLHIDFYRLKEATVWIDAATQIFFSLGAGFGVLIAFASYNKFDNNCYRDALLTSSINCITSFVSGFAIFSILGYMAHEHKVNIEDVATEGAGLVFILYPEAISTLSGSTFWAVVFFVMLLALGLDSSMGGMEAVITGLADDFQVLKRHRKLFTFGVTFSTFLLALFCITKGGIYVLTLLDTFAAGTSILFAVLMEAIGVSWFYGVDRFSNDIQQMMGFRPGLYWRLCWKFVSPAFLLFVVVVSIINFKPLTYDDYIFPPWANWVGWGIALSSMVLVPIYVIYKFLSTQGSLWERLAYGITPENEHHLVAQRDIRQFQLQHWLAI
Description: The ability of compounds to act as inhibitors of the human norepinephrine transporter (hNET) was measured by competitive inhibition of ^3H-nisoxetine from membrane expressing hNET.
Total assay volume 150 μL (50 μL peptide conjugate, 50 μL tritiated compound and 50 μL membrane) with each data point performed in triplicate. Assay buffer used was TrisHCl (50 mM, pH 7.4), NaCl (120 mM) and KCl (5 mM). Peptide conjugates were initially screened at a single concentration of 10 μM. […] After the addition of the membrane the assay was incubated for 1 h at RT after which the reaction was filtered onto GF filtermats B (Perkin Elmer cat #1450-521) pretreated with 0.6% PEI using a Tomtec cell harvester and washed 3 times using wash buffer (20 mM HEPES pH 7.4, 125 mM NaCl @ 4° C.). Filtermats were then dried, placed in a filter bag, 9 mL betaplate scintillant (Perkin Elmer cat #1205-440) added and filtermats counted on a Wallac Microbeta instrument.

Row | Substance | % inh @ 10 μM [1] | % inhib @ 10 μM [2] | % inhib @ 10 μM [3]
1 | 46 (CF[12302](cyclohex‑CH2—CO)YC; disulfide 1-5 (inferred)) [compound 46] | >80% |  | 
2 | 6 (CV[H2NNH:CHNH(CH2)3CO]KC; disulfide 1-5 (inferred); not fully specified) [compound 6] |  | >70% | 94%
3 | 47 (CF[12302](Isovaleryl)YC; disulfide 1-5 (inferred)) [compound 47] | >80% |  | 
